Data published in patent publication US9809653B2, “Anti-LAMP1 antibodies and antibody drug conjugates, and uses thereof” (SANOFI, priority 2012, dated 2017).
Several values for one entry are separate records, joined by “and”; a condition that tells them apart may be missing. Identical values can stand only once. Like-named read-outs stand apart in the source and are kept apart here.

T1: LAMP1 (SEQ ID NO: 28 protein) (Homo sapiens, UniProt P11279)
T1 construct: made in house; host or cells: HEK293 (293-F), transient expression, IMAC-purified
T1 sequence (P11279 with tags, fused parts or gaps): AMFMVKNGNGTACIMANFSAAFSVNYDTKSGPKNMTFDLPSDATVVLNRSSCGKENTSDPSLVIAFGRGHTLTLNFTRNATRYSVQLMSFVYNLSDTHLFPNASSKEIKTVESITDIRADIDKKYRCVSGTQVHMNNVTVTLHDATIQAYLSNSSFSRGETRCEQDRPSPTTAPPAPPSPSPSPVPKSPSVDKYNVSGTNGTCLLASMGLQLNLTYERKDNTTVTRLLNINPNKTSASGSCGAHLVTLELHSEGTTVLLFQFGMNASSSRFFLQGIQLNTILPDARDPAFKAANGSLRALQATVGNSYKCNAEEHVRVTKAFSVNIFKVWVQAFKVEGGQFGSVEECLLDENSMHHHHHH

T2: LAMP1 expressed on the surface of advanced human primary colon tumor CR-IGR-034P (Homo sapiens, UniProt P11279)
T2 construct: endogenous in cells; host or cells: enzymatically dissociated patient-derived xenograft tumour cells (e.g. CR-IGR-034P, LUN-NIC-014P, BRE-IGR-0159) and tumour cell lines
T2 sequence (P11279 29-417): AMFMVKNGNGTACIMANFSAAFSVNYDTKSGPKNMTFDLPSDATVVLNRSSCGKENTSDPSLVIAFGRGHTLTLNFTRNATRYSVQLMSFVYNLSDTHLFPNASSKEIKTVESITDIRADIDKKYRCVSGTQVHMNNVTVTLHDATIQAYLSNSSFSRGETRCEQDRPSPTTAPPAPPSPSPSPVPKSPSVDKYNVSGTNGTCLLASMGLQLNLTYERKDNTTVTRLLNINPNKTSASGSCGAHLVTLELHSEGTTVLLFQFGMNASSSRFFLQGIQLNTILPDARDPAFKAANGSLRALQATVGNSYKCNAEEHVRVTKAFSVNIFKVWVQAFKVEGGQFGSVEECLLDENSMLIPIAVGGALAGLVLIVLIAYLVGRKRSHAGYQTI

T3: recombinant human LAMP1 (29-382 of SEQ ID NO: 28) (Homo sapiens, UniProt P11279)
T3 construct: made in house; host or cells: HEK293 (293-F), transient expression, IMAC-purified
T3 sequence (P11279 with tags, fused parts or gaps): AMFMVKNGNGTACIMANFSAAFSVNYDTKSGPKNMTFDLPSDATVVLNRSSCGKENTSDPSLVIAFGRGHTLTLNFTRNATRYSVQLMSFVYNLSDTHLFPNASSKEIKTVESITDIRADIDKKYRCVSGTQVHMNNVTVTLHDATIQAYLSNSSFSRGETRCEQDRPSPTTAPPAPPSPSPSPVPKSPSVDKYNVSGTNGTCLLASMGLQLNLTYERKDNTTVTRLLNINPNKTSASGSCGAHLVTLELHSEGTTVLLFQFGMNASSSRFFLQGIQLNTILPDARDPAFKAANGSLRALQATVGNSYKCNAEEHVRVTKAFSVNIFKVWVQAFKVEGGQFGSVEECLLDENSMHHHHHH


How the values were obtained:
Assay type in all cases: binding
[1] = target: T1, LAMP1 (SEQ ID NO: 28 protein); assay: Affinity to LAMP1 by SPR (BIAcore 2000)
Protocol: The use of surface plasmon resonance to determine is known to the skilled in the art. In one example the binding kinetics of for example the murine, chimer or humanized anti-LAMP1 mAbs were determined by surface plasmon resonance assay using typically a BIAcore 2000 (BIAcore Inc., Uppsala, N.J.). Therefore, for example a CM5 BIAcore biosensor chip was docked into the instrument and activated with for example 70 μL of 1:1 NHS/EDC at room temperature. Typically, a mouse anti-αhuman Fc IgG1 (BIAcore #BR-1008-39) and rabbit anti-αmurine Fc IgG1 (BIAcore #BR-1008-38) (50 μg/mL in 1 M acetate buffer, pH5) were immobilized on the activated chips in all flow cells. The immobilization was carried out at a flow rate of for example 10 μL/min up to saturation. The chip was then blocked by for example injection of 70 μL of ethanolamine-HCl, pH 8.5, followed by one wash with 3 M MgCl2 for anti-αhuman Fc IgG1 and one wash with 10 mM Glycine-HCl pH 1.7 for anti-αmurine Fc IgG1. To measure the binding of for example anti-LAMP1 mAbs to LAMP1, antibodies were used at 1-5 μg/mL in BIAcore running buffer (HBS-EP). The antigen for example (Sequence ID No 28 protein produced as described in example 6.2) was injected from for example 1 to 256 nM. Following completion of the injection phase, dissociation was monitored in a BIAcore running buffer at the same flow rate for typically 600 sec. The surface was typically regenerated between injections using for example 2×5 μL 3 M MgCl2 (2×30 s) or anti-αhuman Fc IgG1 and 1×30 μL 10 mM Glycine-HCl pH 1.7 for anti-αmurine Fc IgG1 (180 s). Individual sensorgrams were typically analyzed using BIAevaluation software.
The binding kinetics of the murine, chimer or humanized anti-LAMP1 mAbs were determined by surface plasmon resonance assay using a BIAcore 2000 (BIAcore Inc., Uppsala, N.J.). Briefly, a CM5 BIAcore biosensor chip was docked into the instrument and activated with 70 μL of 1:1 NHS/EDC at room temperature. A mouse anti-αhuman Fc IgG1 (BIAcore #BR-1008-39) and rabbit anti-αmurine Fc IgG1 (BIAcore #BR-1008-38) (50 μg/mL in 1 M acetate buffer, pH5) were immobilized on the activated chips in all flow cells. The immobilization was carried out at a flow rate of 10 μL/min up to saturation. The chip was then blocked by injection of 70 μL of ethanolamine-HCl, pH 8.5, followed by one wash with 3 M MgCl2 for anti-αhuman Fc IgG1 and one wash with 10 mM Glycine-HCl pH 1.7 for anti-αmurine Fc IgG1. To measure the binding of anti-LAMP1 mAbs to LAMP1, antibodies were used at 1-5 μg/mL in BIAcore running buffer (HBS-EP). The antigen (SEQ ID NO: 28 protein produced as described in example 6.2) was injected from 1 to 256 nM. Following completion of the injection phase, dissociation was monitored in a BIAcore running buffer at the same flow rate for 600 sec. The surface was regenerated between injections using 2×5 μL 3 M MgCl2 (2×30 s) or anti-αhuman Fc IgG1 and 1×30 μL 10 mM Glycine-HCl pH 1.7 for anti-αmurine Fc IgG1 (180 s). Individual sensorgrams were analyzed using BIAevaluation software.

[2] = target: T2, LAMP1 expressed on the surface of advanced human primary colon tumor CR-IGR-034P; assay: Apparent affinity to human primary colon tumor PDX by flow cytometry; settings: dissociated PDX tumor cells, 45 min at 4° C., read-out: EC50 obtained with CR-IGR-034P
Protocol: Advanced human primary colon tumor CR-IGR-034P was obtained from Patient-derived xenograft in mice. Tumor CR-IGR-034P was enzymatically dissociated using collagenase Type IV (Invitrogen; #17104-019) and deoxyribonuclease I (Invitrogen; #18047-019) for 1 h at 4° C. Cell viability was estimated by Viacount application using Guava® easyCyte™ 8HT Flow Cytometry System. […] 100 μL/well of goat anti-mouse IgG conjugated with Alexa647 (Invitrogen; #A2135) or goat anti-human IgG conjugated with Alexa488 (Invitrogen; #A11013) was added for 45 min at 4° C. and washed three times with PBS 1% BSA. The antibody binding was evaluated after centrifugation and resuspension of cells by adding 200 μl/well PBS 1% BSA and read using Guava® easyCyte™ 8HT Flow Cytometry System. EC50 values were estimated using BIOST@T-SPEED software. EC50 values obtained with the advanced human primary colon tumor CR-IGR-034P are listet in Table 3.

[3] = target: T3, recombinant human LAMP1 (29-382 of SEQ ID NO: 28); assay: ELISA on recombinant human LAMP1
[4] = ELISA (Table 7), read-out: EC50
[5] = ELISA (Table 13), read-out: EC50 (nM) human LAMP1
[6] = ELISA (Table 21), read-out: EC50 obtained for murine hybridoma mAbs hLAMP1

Kd [1] | ka [1] | kd [1] | EC50 [2] | EC50 [3, 4] | EC50 [3, 5] | EC50 [3, 6] | EC50 ([3]; ELISA, read-out: EC50 to LAMP1) | Molecule
63.5 nM | 63300 M⁻¹ s⁻¹ | 0.00402 s⁻¹ | 14 nM | 0.25 nM | 0.25 nM | 0.25 nM | ~0.3 nM | MAb2: murine monoclonal anti-LAMP1 antibody, VH SEQ ID NO: 8, VL SEQ ID NO: 12 (antibody, V domains shown, antibod fragment; antibody fragment) VH: QVQLQQSAAELARPGASVKMSCKASGYTFTSYTMHWVKQRPGQGLEWIGYFNPSSGYPEYNQKFKDKTTLTADKSSNTAFIQLNSLTSEDSAVYYCSRGYYYGSRGYALDFWGQGASVTVSS VL: NIVLTQSPVSLAVSLGQRATISCRASESVDINGNTFMHWYQQKPGQSPKLVIYAASNIESGVPARFSGSGSSTDFTFTIDPVEADDVATYYCQQNIEDPWTFGGGTKVEIK
4.8 nM | 148000 M⁻¹ s⁻¹ | 0.00071 s⁻¹ | 5 nM | 0.18 nM | 0.18 nM | 0.18 nM | 0.16 nM and ~0.2 nM | MAb1: murine monoclonal anti-LAMP1 antibody, VH SEQ ID NO: 1, VL SEQ ID NO: 5 (antibody, V domains shown, Antibody Fragment; antibody fragment) VH: QVQLQQSGAELVKPGASVKMSCKASGYIFTNYNIHWVKKSPGQGLEWIGAIYPGNGDAPYSQKFKDKATLTADKSSSTTYMQLSRLTSEDSAVYYCVRANWDVAFAYWGQGTLVSVSA VL: DIQMTQSPPSLSASLGGKVTITCKASQDIDRYMAWYQDKPGKGPRLLIHDTSTLQPGIPSRFSGSGSGRDYSFSISNLEPEDIATYYCLQYDNLWTFGGGTKLEIK
